Experimental data as given in patent publication US20120040896.

How the values were obtained:
[1] = system: GST-BRCA1 fusion protein A509+S694 (T509A mutant, nucleotides 1323-2538)
[2] = system: GST-BRCA1 fusion protein E509+S694 (phospho-mimic T509E mutant, nucleotides 1323-2538)
[3] = system: GST-BRCA1 fusion protein S694/T696 (nucleotides 1926-2538)
[4] = system: GST-BRCA1 fusion protein T1246 (nucleotides 3714-4310)
[5] = system: GST-BRCA1 fusion protein T509 (nucleotides 1323-1886)
[6] = system: GST-BRCA1 fusion protein wild-type T509+S694 (nucleotides 1323-2538)
Sequence of GST-BRCA1 fusion protein wild-type T509+S694 (nucleotides 1323-2538) (chain, as listed by the source): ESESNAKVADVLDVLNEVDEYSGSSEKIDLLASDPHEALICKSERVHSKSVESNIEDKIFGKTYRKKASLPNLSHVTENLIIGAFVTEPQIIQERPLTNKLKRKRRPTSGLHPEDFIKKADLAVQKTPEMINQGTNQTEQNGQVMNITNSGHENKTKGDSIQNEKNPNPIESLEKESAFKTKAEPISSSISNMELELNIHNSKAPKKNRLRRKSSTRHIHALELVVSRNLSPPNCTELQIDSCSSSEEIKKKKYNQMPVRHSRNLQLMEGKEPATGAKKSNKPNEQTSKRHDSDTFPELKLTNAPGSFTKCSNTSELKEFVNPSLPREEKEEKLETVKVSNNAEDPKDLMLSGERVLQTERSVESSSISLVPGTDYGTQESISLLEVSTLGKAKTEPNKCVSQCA

[7] = system: GST-BRCA1 fusion protein with a T509A mutation (A509, nucleotides 1323-1886)
[8] = system: purified full length BRCA1 protein (ProteinOne)

Sequence of GST-BRCA1 fusion protein S694/T696 (nucleotides 1926-2538) (chain, as listed by the source): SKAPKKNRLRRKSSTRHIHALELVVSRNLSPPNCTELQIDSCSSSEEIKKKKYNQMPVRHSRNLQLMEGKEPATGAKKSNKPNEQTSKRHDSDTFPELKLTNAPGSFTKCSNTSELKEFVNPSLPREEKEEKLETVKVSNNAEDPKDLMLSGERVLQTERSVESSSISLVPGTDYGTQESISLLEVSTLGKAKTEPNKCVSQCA
Sequence of GST-BRCA1 fusion protein T1246 (nucleotides 3714-4310) (chain, as listed by the source): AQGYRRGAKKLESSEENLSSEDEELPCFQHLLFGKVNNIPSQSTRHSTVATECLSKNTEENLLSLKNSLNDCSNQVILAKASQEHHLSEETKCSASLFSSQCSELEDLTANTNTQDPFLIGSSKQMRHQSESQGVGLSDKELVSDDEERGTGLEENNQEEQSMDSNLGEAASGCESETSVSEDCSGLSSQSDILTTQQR
Sequence of GST-BRCA1 fusion protein T509 (nucleotides 1323-1886) (chain, as listed by the source): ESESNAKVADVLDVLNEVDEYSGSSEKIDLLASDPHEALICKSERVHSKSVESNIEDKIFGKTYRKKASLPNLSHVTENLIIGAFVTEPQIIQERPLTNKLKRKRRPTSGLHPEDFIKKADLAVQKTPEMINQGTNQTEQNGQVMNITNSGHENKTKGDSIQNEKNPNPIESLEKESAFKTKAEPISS

For purified active Akt1, the “in vitro Akt kinase assay (phosphorylation signal)” value [1] was “equally phosphorylated by Akt, with the intensity of these signals approximately equal to one half of the signal obtained with the wild-type T509+S694 construct”, the “in vitro Akt kinase assay (phosphorylation signal)” value [2] was “equally phosphorylated by Akt, with the intensity of these signals approximately equal to one half of the signal obtained with the wild-type T509+S694 construct” and the “in vitro Akt kinase assay (phosphorylation)” value [3] was “both the T509 and S694/T696 constructs were strongly phosphorylated”. For the same substance, the “in vitro Akt kinase assay (phosphorylation)” value [4] was “T1246 did not appear to be phosphorylated”, the “in vitro Akt kinase assay (phosphorylation)” value [5] was “both the T509 and S694/T696 constructs were strongly phosphorylated” and the “in vitro Akt kinase assay (phosphorylation signal)” value [6] was “the signal obtained with the wild-type T509+S694 construct”. The “in vitro Akt kinase assay (phosphorylation)” value [7] was “A fusion protein with a T509A mutation was not phosphorylated” and the “in vitro kinase reaction (phosphorylation)” value [8] was “full length BRCA1 is phosphorylated by Akt in vitro”.
